Results taken from article PMC11697363 (Nature Communications, 2025).

Target: T1, GST-Pelota (Arabidopsis thaliana, UniProt Q9ZT87 1-378)
T1 sequence (looked up): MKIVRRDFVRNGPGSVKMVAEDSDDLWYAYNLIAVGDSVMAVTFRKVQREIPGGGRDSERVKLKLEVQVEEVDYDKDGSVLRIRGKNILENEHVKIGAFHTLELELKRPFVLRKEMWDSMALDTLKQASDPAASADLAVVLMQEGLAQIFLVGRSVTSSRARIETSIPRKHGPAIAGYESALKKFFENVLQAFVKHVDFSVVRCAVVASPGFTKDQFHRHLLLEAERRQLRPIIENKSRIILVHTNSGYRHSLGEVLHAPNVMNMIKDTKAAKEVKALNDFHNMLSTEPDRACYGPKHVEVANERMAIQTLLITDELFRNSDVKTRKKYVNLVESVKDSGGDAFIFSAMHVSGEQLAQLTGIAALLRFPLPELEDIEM
Test: pull-down

binding result: binds
B1: MBP-SCE1 (enzyme, Arabidopsis thaliana, UniProt Q42551 1-160, looked up)
chain: MASGIARGRLAEERKSWRKNHPHGFVAKPETGQDGTVNLMVWHCTIPGKAGTDWEGGFFPLTMHFSEDYPSKPPKCKFPQGFFHPNVYPSGTVCLSILNEDYGWRPAITVKQILVGIQDLLDTPNPADPAQTDGYHLFCQDPVEYKKRVKLQSKQYPALV
